Source: patent publication US20140105889A1 (published 2014)

T1: human FcγRIIa type H (human, UniProt P12318 36-217)
T1 construct: also called FcgRIIaH; FcγRIIa(H)
T1 sequence: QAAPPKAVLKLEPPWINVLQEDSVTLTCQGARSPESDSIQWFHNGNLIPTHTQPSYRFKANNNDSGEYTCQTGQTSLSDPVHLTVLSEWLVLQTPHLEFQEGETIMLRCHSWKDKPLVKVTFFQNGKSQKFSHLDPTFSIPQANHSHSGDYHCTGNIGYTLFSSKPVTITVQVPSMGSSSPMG

T2: human FcγRIIb (human, UniProt P31994 43-217, limits assumed)
T2 construct: also called FcgRIIb; FcγIIB
T2 sequence: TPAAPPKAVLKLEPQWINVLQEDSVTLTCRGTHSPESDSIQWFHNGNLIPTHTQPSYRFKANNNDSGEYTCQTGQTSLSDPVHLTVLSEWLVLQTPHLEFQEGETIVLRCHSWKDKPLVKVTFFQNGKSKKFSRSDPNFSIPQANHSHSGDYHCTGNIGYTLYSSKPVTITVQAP

T3: human FcγRIIb (human, UniProt P31994 43-217)
T3 construct: also called FcγIIB
T3 sequence: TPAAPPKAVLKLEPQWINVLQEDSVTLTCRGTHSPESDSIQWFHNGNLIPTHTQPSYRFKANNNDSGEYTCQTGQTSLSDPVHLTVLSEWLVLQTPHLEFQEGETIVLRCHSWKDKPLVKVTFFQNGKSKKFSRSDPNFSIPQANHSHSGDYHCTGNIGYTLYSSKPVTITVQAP

B1: IL6R-BP207/IL6R-L (antibody, human IgG1)
heavy: QVQLQESGPGLVKPSETLSLTCAVSGHSISHDHAWSWVRQPPGEGLEWIGFISYSGITNYNPSLQGRVTISRDNSKNTLYLQMNSLRAEDTAVYYCARSLARTTAMDYWGEGTLVTVSSASTKGPSVFPLAPSSKSTSGGTAALGCLVKDYFPEPVTVSWNSGALTSGVHTFPAVLQSSGLYSLSSVVTVPSSSLGTQTYICNVNHKPSNTKVDKKVEPKSCDKTHTCPPCPAPDLLGGDSVFLFPPKPKDTLMISRTPEVTCVVVDVSHEDPEVKFNWYVDGVEVHNAKTKPREEQYNSTYRVVSVLTVLHQDWLNGKEYKCKVSNKALPRPIEKTISKAKGQPREPQVYTLPPSRDELTKNQVSLTCLVKGFYPSDIAVEWESNGQPENNYKTTPPVLDSDGSFFLYSKLTVDKSRWQQGNVFSCSVMHEALHNHYTQESLSLSP
light: DIQMTQSPSSLSASVGDRVTITCRASQDISSYLNWYQQKPGKAPKLLIYYTSRLHSGVPSRFSGSGSGTDFTFTISSLQPEDIATYYCQQGNTLPYTFGQGTKVEIK
notes: The common L chain is IL6R-L; copies: 2 + 2
B2: IL6R-BP212/IL6R-L (antibody, human IgG1)
heavy: QVQLQESGPGLVKPSETLSLTCAVSGHSISHDHAWSWVRQPPGEGLEWIGFISYSGITNYNPSLQGRVTISRDNSKNTLYLQMNSLRAEDTAVYYCARSLARTTAMDYWGEGTLVTVSSASTKGPSVFPLAPSSKSTSGGTAALGCLVKDYFPEPVTVSWNSGALTSGVHTFPAVLQSSGLYSLSSVVTVPSSSLGTQTYICNVNHKPSNTKVDKKVEPKSCDKTHTCPPCPAPDLLGGDSVFLFPPKPKDTLMISRTPEVTCVVVDVSDEDGEVKFNWYVDGVEVHNAKTKPREEQDNSTYRVVSVLTVLHQDWLNGKEYKCKVSNKALPRPIEKTISKAKGQPREPQVYTLPPSRDELTKNQVSLTCLVKGFYPSDIAVEWESNGQPENNYKTTPPVLDSDGSFFLYSKLTVDKSRWQQGNVFSCSVMHEALHNHYTQESLSLSP
light: DIQMTQSPSSLSASVGDRVTITCRASQDISSYLNWYQQKPGKAPKLLIYYTSRLHSGVPSRFSGSGSGTDFTFTISSLQPEDIATYYCQQGNTLPYTFGQGTKVEIK
notes: as for B1
B3: IL6R-BP208/IL6R-L (antibody, human IgG1)
heavy: QVQLQESGPGLVKPSETLSLTCAVSGHSISHDHAWSWVRQPPGEGLEWIGFISYSGITNYNPSLQGRVTISRDNSKNTLYLQMNSLRAEDTAVYYCARSLARTTAMDYWGEGTLVTVSSASTKGPSVFPLAPSSKSTSGGTAALGCLVKDYFPEPVTVSWNSGALTSGVHTFPAVLQSSGLYSLSSVVTVPSSSLGTQTYICNVNHKPSNTKVDKKVEPKSCDKTHTCPPCPAPDLLGDDSVFLFPPKPKDTLMISRTPEVTCVVVDVSDEDGEVKFNWYVDGVEVHNAKTKPREEQYNSTYRVVSVLTVLHQDWLNGKEYKCKVSNKALPRPIEKTISKAKGQPREPQVYTLPPSRDELTKNQVSLTCLVKGFYPSDIAVEWESNGQPENNYKTTPPVLDSDGSFFLYSKLTVDKSRWQQGNVFSCSVMHEALHNHYTQESLSLSP
light: DIQMTQSPSSLSASVGDRVTITCRASQDISSYLNWYQQKPGKAPKLLIYYTSRLHSGVPSRFSGSGSGTDFTFTISSLQPEDIATYYCQQGNTLPYTFGQGTKVEIK
notes: as for B1
B4: IL6R-BP183/IL6R-L (antibody, human IgG1)
heavy: QVQLQESGPGLVKPSETLSLTCAVSGHSISHDHAWSWVRQPPGEGLEWIGFISYSGITNYNPSLQGRVTISRDNSKNTLYLQMNSLRAEDTAVYYCARSLARTTAMDYWGEGTLVTVSSASTKGPSVFPLAPSSKSTSGGTAALGCLVKDYFPEPVTVSWNSGALTSGVHTFPAVLQSSGLYSLSSVVTVPSSSLGTQTYICNVNHKPSNTKVDKKVEPKSCDKTHTCPPCPAPDYLGGDSVFLFPPKPKDTLMISRTPEVTCVVVDVSHEDGEVKFNWYVDGVEVHNAKTKPREEQYNSTYRVVSVLTVLHQDWLNGKEYKCKVSNAALPKPIEKTISKAKGQPREPQVYTLPPSRDELTKNQVSLTCLVKGFYPSDIAVEWESNGQPENNYKTTPPVLDSDGSFFLYSKLTVDKSRWQQGNVFSCSVMHEALHNHYTQESLSLSP
light: DIQMTQSPSSLSASVGDRVTITCRASQDISSYLNWYQQKPGKAPKLLIYYTSRLHSGVPSRFSGSGSGTDFTFTISSLQPEDIATYYCQQGNTLPYTFGQGTKVEIK
notes: Anti-human IL-6 receptor human IgG1 variant; copies: 2 + 2
B5: IL6R-BP187/IL6R-L (antibody, human IgG1)
heavy: QVQLQESGPGLVKPSETLSLTCAVSGHSISHDHAWSWVRQPPGEGLEWIGFISYSGITNYNPSLQGRVTISRDNSKNTLYLQMNSLRAEDTAVYYCARSLARTTAMDYWGEGTLVTVSSASTKGPSVFPLAPSSKSTSGGTAALGCLVKDYFPEPVTVSWNSGALTSGVHTFPAVLQSSGLYSLSSVVTVPSSSLGTQTYICNVNHKPSNTKVDKKVEPKSCDKTHTCPPCPAPEYLGGDSVFLFPPKPKDTLMISRTPEVTCVVVDVSHEDGEVKFNWYVDGVEVHNAKTKPREEQYNSTYRVVSVLTVLHQDWLNGKEYKCKVSNAALPKPIEKTISKAKGQPREPQVYTLPPSRDELTKNQVSLTCLVKGFYPSDIAVEWESNGQPENNYKTTPPVLDSDGSFFLYSKLTVDKSRWQQGNVFSCSVMHEALHNHYTQESLSLSP
light: DIQMTQSPSSLSASVGDRVTITCRASQDISSYLNWYQQKPGKAPKLLIYYTSRLHSGVPSRFSGSGSGTDFTFTISSLQPEDIATYYCQQGNTLPYTFGQGTKVEIK
notes: as for B4
B6: IL6R-BP186/IL6R-L (antibody, human IgG1)
heavy: QVQLQESGPGLVKPSETLSLTCAVSGHSISHDHAWSWVRQPPGEGLEWIGFISYSGITNYNPSLQGRVTISRDNSKNTLYLQMNSLRAEDTAVYYCARSLARTTAMDYWGEGTLVTVSSASTKGPSVFPLAPSSKSTSGGTAALGCLVKDYFPEPVTVSWNSGALTSGVHTFPAVLQSSGLYSLSSVVTVPSSSLGTQTYICNVNHKPSNTKVDKKVEPKSCDKTHTCPPCPAPDYLGDDSVFLFPPKPKDTLMISRTPEVTCVVVDVSHEDGEVKFNWYVDGVEVHNAKTKPREEQDNSTYRVVSVLTVLHQDWLNGKEYKCKVSNAALPKPIEKTISKAKGQPREPQVYTLPPSRDELTKNQVSLTCLVKGFYPSDIAVEWESNGQPENNYKTTPPVLDSDGSFFLYSKLTVDKSRWQQGNVFSCSVMHEALHNHYTQESLSLSP
light: DIQMTQSPSSLSASVGDRVTITCRASQDISSYLNWYQQKPGKAPKLLIYYTSRLHSGVPSRFSGSGSGTDFTFTISSLQPEDIATYYCQQGNTLPYTFGQGTKVEIK
notes: as for B4
B7: IL6R-BP209/IL6R-L (antibody, human IgG1)
heavy: QVQLQESGPGLVKPSETLSLTCAVSGHSISHDHAWSWVRQPPGEGLEWIGFISYSGITNYNPSLQGRVTISRDNSKNTLYLQMNSLRAEDTAVYYCARSLARTTAMDYWGEGTLVTVSSASTKGPSVFPLAPSSKSTSGGTAALGCLVKDYFPEPVTVSWNSGALTSGVHTFPAVLQSSGLYSLSSVVTVPSSSLGTQTYICNVNHKPSNTKVDKKVEPKSCDKTHTCPPCPAPELLGDDSVFLFPPKPKDTLMISRTPEVTCVVVDVSDEDGEVKFNWYVDGVEVHNAKTKPREEQYNSTYRVVSVLTVLHQDWLNGKEYKCKVSNAALPRPIEKTISKAKGQPREPQVYTLPPSRDELTKNQVSLTCLVKGFYPSDIAVEWESNGQPENNYKTTPPVLDSDGSFFLYSKLTVDKSRWQQGNVFSCSVMHEALHNHYTQESLSLSP
light: DIQMTQSPSSLSASVGDRVTITCRASQDISSYLNWYQQKPGKAPKLLIYYTSRLHSGVPSRFSGSGSGTDFTFTISSLQPEDIATYYCQQGNTLPYTFGQGTKVEIK
notes: as for B1

How the values were obtained:
[1] = target: T4, human FcγRIa (human, UniProt P12314 16-292, limits assumed); experiment: SPR (Biacore); binding amount divided by that of control IL6R-BF648/IL6R-L, x100
T4 construct: also called FcgRIa; CD64
Procedure: (§1) According to the following method, relative binding activities were calculated for the results of analyzing interactions with the respective FcγRs.

[2] = target: T1, human FcγRIIa type H; experiment: as above
Procedure: as §1

[3] = target: T2, human FcγRIIb; experiment: as above
Procedure: as §1

[4] = target: T5, human FcγRIIIa type V (human, UniProt P08637 17-208, limits assumed); experiment: as above
T5 construct: The assay used allotype V158; also called FcgRIIIaV; FcγRIIIa(V)
Procedure: as §1

[5] = target: T6, human FcγRIIIa type V (allotype V158) (human, UniProt P08637 17-208, limits assumed); experiment: SPR (Biacore), antibody captured on the chip, FcγR as analyte
T6 construct: the assay used allotype V158; also called FcγRIIIaV; FcγRIIIa(V)

[6] = target: T3, human FcγRIIb; experiment: SPR (Biacore); KD of parent IL6R-B3/IL6R-L for FcγRIIb divided by KD of the variant for FcγRIIb
Source text: Furthermore, KD(IIaR)/KD(IIb) and KD(IIaH)/KD(IIb) in the table respectively represent the value obtained by dividing the KD value of each variant for FcγRIIaR by the KD value of each variant for FcγRIIb, and the value obtained by dividing the KD value of each variant for FcγRIIaH by the KD value of each variant for FcγRIIb.

T5 sequence (P08637 other isoform, or with tags, fused parts or gaps limits assumed): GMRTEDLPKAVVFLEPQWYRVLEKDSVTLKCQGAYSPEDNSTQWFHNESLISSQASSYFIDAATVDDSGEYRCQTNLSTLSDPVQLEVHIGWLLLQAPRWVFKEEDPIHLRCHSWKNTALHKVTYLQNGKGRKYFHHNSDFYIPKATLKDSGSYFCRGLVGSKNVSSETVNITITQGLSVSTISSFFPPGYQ
T6 sequence (P08637 other isoform, or with tags, fused parts or gaps limits assumed): as above
T4 sequence (P12314 16-292 limits assumed): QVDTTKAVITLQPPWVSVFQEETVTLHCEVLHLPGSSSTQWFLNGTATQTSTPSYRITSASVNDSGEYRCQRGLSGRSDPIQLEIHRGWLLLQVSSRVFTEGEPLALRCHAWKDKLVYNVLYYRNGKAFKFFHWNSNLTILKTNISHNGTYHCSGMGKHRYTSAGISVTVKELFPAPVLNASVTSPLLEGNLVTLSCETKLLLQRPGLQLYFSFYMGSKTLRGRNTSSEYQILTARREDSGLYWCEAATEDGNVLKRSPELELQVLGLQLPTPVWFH

Binder | relative binding activity [1] | relative binding activity [2] | relative binding activity [3] | relative binding activity [4] | Kd [5] | KD(IIb) of the parent polypeptide/KD(IIb) of the altered polypeptide [6]
B1 | 74 % of IL6R-BF648/IL6R-L | 103 % of IL6R-BF648/IL6R-L | 124 % of IL6R-BF648/IL6R-L | 97 % of IL6R-BF648/IL6R-L | – | –
B2 | 117 % of IL6R-BF648/IL6R-L | 135 % of IL6R-BF648/IL6R-L | 173 % of IL6R-BF648/IL6R-L | 122 % of IL6R-BF648/IL6R-L | – | –
B3 | 81 % of IL6R-BF648/IL6R-L | 310 % of IL6R-BF648/IL6R-L | 188 % of IL6R-BF648/IL6R-L | 118 % of IL6R-BF648/IL6R-L | – | –
B4 | – | – | – | – | 56 µM | 12.9
B5 | – | – | – | – | 56 µM | 1.7
B6 | – | – | – | – | 49 µM | 50.7
B7 | 68 % of IL6R-BF648/IL6R-L | 267 % of IL6R-BF648/IL6R-L | 186 % of IL6R-BF648/IL6R-L | 153 % of IL6R-BF648/IL6R-L | – | –
